Columns and labels:
[1] = target: T1, NF-κB-inducing kinase, NIK (MAP3K14), full length (human, UniProt Q99558 1-947); test: yeast two-hybrid, NIK as bait, 41 MDD as prey
T1 construct: range 1-947; also called full length NIK; endogenous NIK
From the text: (§1) To define the domain of cγc responsible for binding NIK, deletion mutants of cγc have been created and their binding to NIK analysed (FIG. 1). The deletion mutants were created by sequentially introduction of stop codons in the cytoplasmic domain of cγc, in gaps of 10-20 amino acids. The DNA encoding the full-length cγc or its deletion mutants were introduced into the pGADT7 prey vector (Clontech) for testing their binding to NIK in the SFY526 heterologous yeast strain by the two hybrid assay. The SFY526 yeast strain is […] for TRP and Leu. pGBKT plasmids (bait vector) have the Trp1 wild type gene and pGAD has the wild type Leu2 gene. Thus, only doubly transfected yeast will grow on selective Leu Trp media. Functional GAL4 will be restored in doubly transfected yeast when the chimeric proteins fused to GAL4 domains interact, bringing the activation domain and DNA binding domain of GAL4 to close proximity. The level of LAC-Z expression is indicative of the strength of the protein-protein interaction. Lac-Z activity was assessed by the standard beta-gal/colony lift filter assay (Clontech, Yeast Protocol Handbook, Chapter VI).
(§2) The binding of 41 MDD polypeptide to full length NIK or C-terminus NIK was tested in both orientations (i.e. 41 MDD as the pray and NIK as the bait and vice versa). […]

[2] = target: T2, NIK624-947 (C-terminal domain of NIK) (human, UniProt Q99558 624-947); test: yeast two-hybrid, NIK624-947 as bait, 41 MDD as prey
T2 construct: GAL4 DNA-BD or AD fusion in the two-hybrid tests; expressed from pcdnNIK (co-IP) or pcS3MTdnNIK (reporter assay) in 293-T cells; also called C-terminus of NIK; NIK C-terminus
T2 sequence (Q99558 624-947 limits assumed): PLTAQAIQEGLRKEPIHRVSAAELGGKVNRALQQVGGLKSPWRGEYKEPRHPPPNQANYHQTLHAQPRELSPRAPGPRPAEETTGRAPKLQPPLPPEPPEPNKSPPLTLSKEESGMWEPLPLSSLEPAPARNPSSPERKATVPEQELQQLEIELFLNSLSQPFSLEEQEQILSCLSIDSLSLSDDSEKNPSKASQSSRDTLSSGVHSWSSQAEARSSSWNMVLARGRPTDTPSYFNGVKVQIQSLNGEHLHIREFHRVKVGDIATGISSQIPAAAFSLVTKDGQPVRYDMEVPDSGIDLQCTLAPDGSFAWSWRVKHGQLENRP
From the text: as §1, §2

[3] = target: T1, NF-κB-inducing kinase, NIK (MAP3K14), …; test: yeast two-hybrid

T1 sequence (Q99558 whole entry): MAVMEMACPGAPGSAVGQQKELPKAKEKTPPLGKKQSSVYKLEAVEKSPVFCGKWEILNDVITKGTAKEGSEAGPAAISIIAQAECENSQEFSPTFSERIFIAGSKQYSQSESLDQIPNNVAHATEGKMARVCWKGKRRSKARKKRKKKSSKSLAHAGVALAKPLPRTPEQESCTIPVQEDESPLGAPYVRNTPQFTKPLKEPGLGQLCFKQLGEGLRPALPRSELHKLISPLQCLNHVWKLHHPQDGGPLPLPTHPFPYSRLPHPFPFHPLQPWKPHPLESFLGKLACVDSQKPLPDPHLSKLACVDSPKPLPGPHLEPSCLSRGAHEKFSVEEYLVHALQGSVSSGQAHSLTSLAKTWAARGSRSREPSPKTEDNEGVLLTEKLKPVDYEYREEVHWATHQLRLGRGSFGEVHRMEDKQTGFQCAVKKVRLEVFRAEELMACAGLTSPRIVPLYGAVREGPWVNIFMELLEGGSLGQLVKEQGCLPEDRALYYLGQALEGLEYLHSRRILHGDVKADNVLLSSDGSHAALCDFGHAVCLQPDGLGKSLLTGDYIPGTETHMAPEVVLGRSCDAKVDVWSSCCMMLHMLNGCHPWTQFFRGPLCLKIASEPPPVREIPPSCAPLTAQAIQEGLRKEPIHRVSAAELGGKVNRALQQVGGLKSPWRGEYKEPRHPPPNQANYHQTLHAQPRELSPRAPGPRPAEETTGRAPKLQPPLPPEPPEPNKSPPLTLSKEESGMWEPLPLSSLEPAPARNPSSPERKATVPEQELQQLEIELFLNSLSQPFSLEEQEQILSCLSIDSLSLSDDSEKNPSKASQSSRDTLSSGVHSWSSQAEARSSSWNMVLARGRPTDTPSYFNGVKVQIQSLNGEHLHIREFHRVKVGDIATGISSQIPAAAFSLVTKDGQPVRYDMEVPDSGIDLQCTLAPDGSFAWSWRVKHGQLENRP

| Binder | binding result [1] | binding result [2] | binding result [3] |
| --- | --- | --- | --- |
| LCLVSEIPPKGGALGEGPGASPCNQHSPYWAPPCYTLKPET (GAL4 fusion (bait or prey) in two-hybrid; also called 41 amino acid polypeptide from the membrane distal domain of cγc) [cγc 329-369 (41 MDD polypeptide)] | binds | binds | – |
| WLERTMPRIPTLKNLEDLVTEYHGNFSAWSGVSKGLAESLQPDY (Two-hybrid constructs comprising intracellular fragments close to the membrane proximal domain) [44MPD (cγc membrane proximal domain, residues 282-325)] | – | – | binds |
